From article PMC4335073

Molecular target: Ross River virus (RRV), WT T48 strain, UV-inactivated virus coated on plates (Ross River virus, strain T48)

recombinant human PTX3 N-terminal fragment (domain or fragment)
RRV entry into HEK 293T cells at 0 and 6 hpi (flow cytometry with anti-alphavirus antibody), RRV pre-incubated with the PTX3 fragment, compared with full-length rhPTX3 (% less efficient than full-length rhPTX3): 30
